Measured values taken from the supplement of paper PMC11316812.
± gives the standard deviation of the averaged measurements.

What was measured:
MCF7 = experiment: percentage of EdU-negative (G0-arrested) nuclei per well, 72 h; higher = more G0 arrest; conditions: reference: sequence is the full UniProt precursor, the tested protein was the secreted form or ectodomain
hTERT-HMEC = experiment: as above; conditions: reference: sequence is the full UniProt precursor, the tested protein was the secreted form or ectodomain
[1] = protein concentration 0.0075 µM
[2] = protein concentration 0.0225 µM
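Note: secreted proteins added to cultured cells, EdU pulse at the end, nuclei found by Hoechst imaging, EdU status from nuclear versus surrounding ring intensity ratio, PBS as neutral control.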

Sequence: MKMRRYKLFLMFCMAGLCLISFLHFFKTLSYVTFPRELASLSPNLVSSFFWNNAPVTPQASPEPGGPDLLRTPLYSHSPLLQPLPPSKAAEELHRVDLVLPEDTTEYFVRTKAGGVCFKPGTKMLERPPPGRPEEKPEGANGSSARRPPRYLLSARERTGGRGARRKWVECVCLPGWHGPSCGVPTVVQYSNLPTKERLVPREVPRRVINAINVNHEFDLLDVRFHELGDVVDAFVVCESNFTAYGEPRPLKFREMLTNGTFEYIRHKVLYVFLDHFPPGGRQDGWIADDYLRTFLTQDGVSRLRNLRPDDVFIIDDADEIPARDGVLFLKLYDGWTEPFAFHMRKSLYGFFWKQPGTLEVVSGCTVDMLQAVYGLDGIRLRRRQYYTMPNFRQYENRTGHILVQWSLGSPLHFAGWHCSWCFTPEGIYFKLVSAQNGDFPRWGDYEDKRDLNYIRGLIRTGGWFDGTQQEYPPADPSEHMYAPKYLLKNYDRFHYLLDNPYQEPRSTAAGGWRHRGPEGRPPARGKLDEAEV
- percentage of EdU-negative (MCF7; [1]): 24.8 ± 2.6%
- percentage of EdU-negative (MCF7; protein concentration 0.075 µM): 29.1 ± 1.5%
- percentage of EdU-negative (hTERT-HMEC; [1]): 5.484 ± 0.037%
- percentage of EdU-negative (hTERT-HMEC; protein concentration 0.075 µM): 8.45 ± 1.1%

Sequence: MKMWLLVSHLVIISITTCLAEFTWYRRYGHGVSEEDKGFGPIFEEQPINTIYPEESLEGKVSLNCRARASPFPVYKWRMNNGDVDLTSDRYSMVGGNLVINNPDKQKDAGIYYCLASNNYGMVRSTEATLSFGYLDPFPPEERPEVRVKEGKGMVLLCDPPYHFPDDLSYRWLLNEFPVFITMDKRRFVSQTNGNLYIANVEASDKGNYSCFVSSPSITKSVFSKFIPLIPIPERTTKPYPADIVVQFKDVYALMGQNVTLECFALGNPVPDIRWRKVLEPMPSTAEISTSGAVLKIFNIQLEDEGIYECEAENIRGKDKHQARIYVQAFPEWVEHINDTEVDIGSDLYWPCVATGKPIPTIRWLKNGYAYHKGELRLYDVTFENAGMYQCIAENTYGAIYANAELKILALAPTFEMNPMKKKILAAKGGRVIIECKPKAAPKPKFSWSKGTEWLVNSSRILIWEDGSLEINNITRNDGGIYTCFAENNRGKANSTGTLVITDPTRIILAPINADITVGENATMQCAASFDPALDLTFVWSFNGYVIDFNKENIHYQRNFMLDSNGELLIRNAQLKHAGRYTCTAQTIVDNSSASADLVVRGPPGPPGGLRIEDIRATSVALTWSRGSDNHSPISKYTIQTKTILSDDWKDAKTDPPIIEGNMEAARAVDLIPWMEYEFRVVATNTLGRGEPSIPSNRIKTDGAAPNVAPSDVGGGGGRNRELTITWAPLSREYHYGNNFGYIVAFKPFDGEEWKKVTVTNPDTGRYVHKDETMSPSTAFQVKVKAFNNKGDGPYSLVAVINSAQDAPSEAPTEVGVKVLSSSEISVHWEHVLEKIVESYQIRYWAAHDKEEAANRVQVTSQEYSARLENLLPDTQYFIEVGACNSAGCGPPSDMIEAFTKKAPPSQPPRIISSVRSGSRYIITWDHVVALSNESTVTGYKVLYRPDGQHDGKLYSTHKHSIEVPIPRDGEYVVEVRAHSDGGDGVVSQVKISGAPTLSPSLLGLLLPAFGILVYLEF
- percentage of EdU-negative (MCF7; [2]): 24.5 ± 1.2%
- percentage of EdU-negative (MCF7; protein concentration 0.225 µM): 26.2 ± 0.55%
- percentage of EdU-negative (hTERT-HMEC; [2]): 5.11 ± 0.28%
- percentage of EdU-negative (hTERT-HMEC; protein concentration 0.225 µM): 5.87 ± 0.46%

Sequence: MKPAAREARLPPRSPGLRWALPLLLLLLRLGQILCAGGTPSPIPDPSVATVATGENGITQISSTAESFHKQNGTGTPQVETNTSEDGESSGANDSLRTPEQGSNGTDGASQKTPSSTGPSPVFDIKAVSISPTNVILTWKSNDTAASEYKYVVKHKMENEKTITVVHQPWCNITGLRPATSYVFSITPGIGNETWGDPRVIKVITEPIPVSDLRVALTGVRKAALSWSNGNGTASCRVLLESIGSHEELTQDSRLQVNISGLKPGVQYNINPYLLQSNKTKGDPLGTEGGLDASNTERSRAGSPTAPVHDESLVGPVDPSSGQQSRDTEVLLVGLEPGTRYNATVYSQAANGTEGQPQAIEFRTNAIQVFDVTAVNISATSLTLIWKVSDNESSSNYTYKIHVAGETDSSNLNVSEPRAVIPGLRSSTFYNITVCPVLGDIEGTPGFLQVHTPPVPVSDFRVTVVSTTEIGLAWSSHDAESFQMHITQEGAGNSRVEITTNQSIIIGGLFPGTKYCFEIVPKGPNGTEGASRTVCNRTVPSAVFDIHVVYVTTTEMWLDWKSPDGASEYVYHLVIESKHGSNHTSTYDKAITLQGLIPGTLYNITISPEVDHVWGDPNSTAQYTRPSNVSNIDVSTNTTAATLSWQNFDDASPTYSYCLLIEKAGNSSNATQVVTDIGITDATVTELIPGSSYTVEIFAQVGDGIKSLEPGRKSFCTDPASMASFDCEVVPKEPALVLKWTCPPGANAGFELEVSSGAWNNATHLESCSSENGTEYRTEVTYLNFSTSYNISITTVSCGKMAAPTRNTCTTGITDPPPPDGSPNITSVSHNSVKVKFSGFEASHGPIKAYAVILTTGEAGHPSADVLKYTYEDFKKGASDTYVTYLIRTEEKGRSQSLSEVLKYEIDVGNESTTLGYYNGKLEPLGSYRACVAGFTNITFHPQNKGLIDGAESYVSFSRYSDAVSLPQDPGVICGAVFGCIFGALVIVTVGGFIFWRKKRKDAKNNEVSFSQIKPKKSKLIRVENFEAYFKKQQADSNCGFAEEYEDLKLVGISQPKYAAELAENRGKNRYNNVLPYDISRVKLSVQTHSTDDYINANYMPGYHSKKDFIATQGPLPNTLKDFWRMVWEKNVYAIIMLTKCVEQGRTKCEEYWPSKQAQDYGDITVAMTSEIVLPEWTIRDFTVKNIQTSESHPLRQFHFTSWPDHGVPDTTDLLINFRYLVRDYMKQSPPESPILVHCSAGVGRTGTFIAIDRLIYQIENENTVDVYGIVYDLRMHRPLMVQTEDQYVFLNQCVLDIVRSQKDSKVDLIYQNTTAMTIYENLAPVTTFGKTNGYIA
- percentage of EdU-negative (MCF7; [2]): 23.2 ± 1.6%
- percentage of EdU-negative (MCF7; protein concentration 0.225 µM): 22.4 ± 0.63%
- percentage of EdU-negative (hTERT-HMEC; [2]): 5.56 ± 1.9%
- percentage of EdU-negative (hTERT-HMEC; protein concentration 0.225 µM): 5.79 ± 0.53%

Sequence: MKPALLEVMRMNRICRMVLATCLGSFILVIFYFQSMLHPVMRRNPFGVDICCRKGSRSPLQELYNPIQLELSNTAVLHQMRRDQVTDTCRANSATSRKRRVLTPNDLKHLVVDEDHELIYCYVPKVACTNWKRLMMVLTGRGKYSDPMEIPANEAHVSANLKTLNQYSIPEINHRLKSYMKFLFVREPFERLVSAYRNKFTQKYNISFHKRYGTKIIKRQRKNATQEALRKGDDVKFEEFVAYLIDPHTQREEPFNEHWQTVYSLCHPCHIHYDLVGKYETLEEDSNYVLQLAGVGSYLKFPTYAKSTRTTDEMTTEFFQNISSEHQTQLYEVYKLDFLMFNYSVPSYLKLE [Q9NPF2]
- percentage of EdU-negative (MCF7; [2]): 23.2 ± 1.9%
- percentage of EdU-negative (MCF7; protein concentration 0.225 µM): 24.6 ± 1.8%
- percentage of EdU-negative (hTERT-HMEC; [2]): 5.07 ± 0.051%
- percentage of EdU-negative (hTERT-HMEC; protein concentration 0.225 µM): 18.8 ± 3%
